These results are taken from article doi:10.1101/2024.09.13.612963 (bioRxiv, 2024).

This assay deals with T1, TRAK1-mScarlet (wild type, truncated before the mitochondrial binding domain) (human, UniProt Q9UPV9 1-702).
T1 sequence (looked up): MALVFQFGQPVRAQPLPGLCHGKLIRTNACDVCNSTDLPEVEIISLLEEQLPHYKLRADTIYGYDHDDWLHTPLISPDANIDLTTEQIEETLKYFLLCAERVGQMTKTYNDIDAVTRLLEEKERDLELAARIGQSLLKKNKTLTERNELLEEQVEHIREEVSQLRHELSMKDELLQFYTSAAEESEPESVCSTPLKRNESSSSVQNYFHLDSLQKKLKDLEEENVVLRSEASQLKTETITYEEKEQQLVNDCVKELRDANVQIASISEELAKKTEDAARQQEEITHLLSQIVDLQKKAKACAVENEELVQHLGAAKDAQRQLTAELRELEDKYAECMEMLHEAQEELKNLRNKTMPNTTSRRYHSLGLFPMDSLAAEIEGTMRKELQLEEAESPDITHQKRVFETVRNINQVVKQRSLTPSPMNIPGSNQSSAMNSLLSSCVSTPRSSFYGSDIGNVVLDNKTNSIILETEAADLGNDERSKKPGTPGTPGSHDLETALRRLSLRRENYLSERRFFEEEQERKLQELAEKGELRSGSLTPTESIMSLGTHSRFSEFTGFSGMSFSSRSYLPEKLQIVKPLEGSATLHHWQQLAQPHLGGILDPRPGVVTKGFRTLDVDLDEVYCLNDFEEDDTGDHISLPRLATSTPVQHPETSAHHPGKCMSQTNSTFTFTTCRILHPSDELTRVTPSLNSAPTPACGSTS
The assay is described as follows: co-IP.

B1: kinesin-1 (KIF5B) (natural protein, human (endogenous in hTERT RPE-1), UniProt P33176 1-963, looked up)
chain: MADLAECNIKVMCRFRPLNESEVNRGDKYIAKFQGEDTVVIASKPYAFDRVFQSSTSQEQVYNDCAKKIVKDVLEGYNGTIFAYGQTSSGKTHTMEGKLHDPEGMGIIPRIVQDIFNYIYSMDENLEFHIKVSYFEIYLDKIRDLLDVSKTNLSVHEDKNRVPYVKGCTERFVCSPDEVMDTIDEGKSNRHVAVTNMNEHSSRSHSIFLINVKQENTQTEQKLSGKLYLVDLAGSEKVSKTGAEGAVLDEAKNINKSLSALGNVISALAEGSTYVPYRDSKMTRILQDSLGGNCRTTIVICCSPSSYNESETKSTLLFGQRAKTIKNTVCVNVELTAEQWKKKYEKEKEKNKILRNTIQWLENELNRWRNGETVPIDEQFDKEKANLEAFTVDKDITLTNDKPATAIGVIGNFTDAERRKCEEEIAKLYKQLDDKDEEINQQSQLVEKLKTQMLDQEELLASTRRDQDNMQAELNRLQAENDASKEEVKEVLQALEELAVNYDQKSQEVEDKTKEYELLSDELNQKSATLASIDAELQKLKEMTNHQKKRAAEMMASLLKDLAEIGIAVGNNDVKQPEGTGMIDEEFTVARLYISKMKSEVKTMVKRCKQLESTQTESNKKMEENEKELAACQLRISQHEAKIKSLTEYLQNVEQKKRQLEESVDALSEELVQLRAQEKVHEMEKEHLNKVQTANEVKQAVEQQIQSHRETHQKQISSLRDEVEAKAKLITDLQDQNQKMMLEQERLRVEHEKLKATDQEKSRKLHELTVMQDRREQARQDLKGLEETVAKELQTLHNLRKLFVQDLATRVKKSAEIDSDDTGGSAAQKQKISFLENNLEQLTKVHKQLVRDNADLRCELPKLEKRLRATAERVKALESALKEAKENASRDRKRYQQEVDRIKEAVRSKNMARRGHSAQIAKPIRPGQHPAASPTHPSAIRGGGAFVQNSQPVAVRGGGGKQV
For B1, the “fold enrichment against TRAK2-driven synthetic cargo” value is about 20 fold.
